Data as given in the supplement of paper PMC12042874.
± gives the uncertainty stated by the source.

Experiment: amyloid nucleation score (Sup35N fusion, yeast selection) (log enrichment); library NNK3; higher = more nucleation; inactive = no reads after selection
How it was run: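 Three technical output replicates were used for random libraries. Psi-negative yeast expressing peptides of 20 random codons fused to Sup35N were induced with 100 μM copper sulfate for 24 hours and grown 7 days at 30°C on medium lacking adenine and uracil, and input and output plasmid inserts were Illumina-sequenced, excluding sequences with under 100 input reads. The nucleation score is the DiMSum log enrichment of output over input reads, centred on the mode score of non-aggregating sequences.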

Substance	amyloid nucleation score
TNYWNHVVYVTGNVCDP	inactive
TPKWILMERNTSRGWATSA	inactive
TPLADN	-0.224 ± 0.73
TPRFMVGAVATEGAHIFLRV	inactive
TPVMRSVNMMVLKTI	inactive
TPWSYASLVLSVQCFGRLIM	inactive
TQFIELS	0.199 ± 0.32
TQRICRWLMVVWCDGRETHE	0.403 ± 0.35
TRFTACGYRKSCYWWIVF	inactive
TRHIGVGRY	inactive
TRHLMLVLSWFLHRKNISRG	inactive
TRIGSTEKTEQSVWD	-0.198 ± 0.75
TRILGYIFGAVSIVWLGVER	inactive
TRLKFTLDWELM	1.06 ± 0.098
TRLLWSAEFGEGNDMTSLKF	0.073 ± 0.87
TRMWYGLLAENGCAYLGCNW	inactive
TRRPAQFVGPI	0.645 ± 0.16
TRSIVY	inactive
TRVHWHR	1.63 ± 0.1
TSAMSYFGDIYWCRKFRRVG	inactive
TSCQLWETIIKMLDHARTGA	inactive
TSDIFTSRYILAIDPRMNWV	inactive
TSINFSMAIDLRSHQLERTV	0.479 ± 0.31
TSLLILRCSGE	inactive

Substance	amyloid nucleation score
TSLVFLLGLSMFM	inactive
TSNIHY	inactive
TSNTGVSVSRFTFSVDRSVG	inactive
TSTELFRSGSVLRKPRMSSA	-0.255 ± 1.1
TSTSIVSYGTWFSGFVLNVS	2.29 ± 0.076
TSYNCCVVHSVRTAIFARG	inactive
TSYVEVGFLVSKYQTWWAVN	inactive
TTCCRFYREIKFFRIS	inactive
TTGPYLSATEHTVGHLR	inactive
TTILLTFDTGTIS	inactive
TTLGHTPPVCFSDPWAQARA	inactive
TTLVGHASPVKAMTGTFTWH	inactive
TTMVIRNAMCNILNVVRKRR	0.203 ± 0.33
TTSRNRIGRGLCGLAS	-0.115 ± 0.48
TTVMLTKLYMFEGPNRFTAL	0.961 ± 0.084
TVARMRFSTMTRDAQCVGRL	0.107 ± 0.9
TVCVWSVKVMP	-0.492 ± 0.66
TVHKVSGKDQGWMYGHMLFC	inactive
TVLFEIYMNEVMNGFLICST	inactive
TVLLYLNDMVNNNFGFEGSF	0.647 ± 0.34
TVLVGDMVVR	inactive
TVLYWRLRQMMRFRLFSSNW	inactive
TVMDVLCECYMIVFRG	0.875 ± 0.13
TVMLWAWEGRWYVRFVSPDR	inactive

Substance	amyloid nucleation score
TVMPIYQCSIGVKFSCDSAK	1.53 ± 0.072
TVNPMIVDPCNW	inactive
TVPIMNVPD	-0.428 ± 0.8
TVSTE	inactive
TVSTNDFSL	-0.61 ± 0.9
TVTGFTCNGCFHAVNSVVLT	0.002 ± 0.8
TVTHLFGHRVGMSLVFNSTY	inactive
TVTVQYTG	inactive
TVTWFDINCMVGFLY	0.431 ± 0.68
TVVDLLVRYSAIGSCVFSVT	inactive
TVYIAYTCVAVRSHSEHLFD	inactive
TVYSTVSRDMNDKHFAGSTG	inactive
TVYYTLFATIWMLGVFFLNN	inactive
TWIMALLMILFNKVFVSSTR	inactive
TWRYWFKLESYNVYWRLLPA	-0.582 ± 1
TYEEGRRQCSRAPMDSYVQS	inactive
TYEST	inactive
TYFRHYRKRSRSTSDLYLRL	inactive
TYGNENSSLILSCTCYIMLS	2.41 ± 0.082
TYNRHSFLA	inactive
TYRCYELVGDTVC	inactive
TYRRFMDNNGVIILILPNER	1.74 ± 0.072
TYTSESWVHLVKYGSLNELE	inactive
TYYTSRYL	inactive

Substance	amyloid nucleation score
VACITLCNIVQSIQMSIIMK	1.45 ± 0.061
VAGLSRHIRIFHYYHSRARF	inactive
VALLDSHGKWFMLGQFLNLK	inactive
VALVVHSLR	inactive
VCGDRKIFNHADVVYRMGRS	inactive
VCGILAISGLLT	inactive
VCIWSIETNVCSGCVKIKGF	inactive
VCLKVQWDYCIRLWVGMSYD	inactive
VCLLIRPID	inactive
VCMEMLEHIMIWFNSVDT	inactive
VCNYEVVAVIRDE	inactive
VCPVERSY	inactive
VCSVFLLLCANRLRVGGNYI	inactive
VCSYSMISHSAKWFVLILEW	inactive
VCTYNLAFGYFGVVWLTFVV	-0.519 ± 0.82
VCVKYAMTPVWSAGAARFHK	inactive
VCWSYNSNL	inactive
VCYPHLYWMDPGWVS	inactive
VDEIWMGGLFCILYVSEVHK	inactive
VDLAIMLVDLLGHSKMYQTG	inactive
VDLRSLSPGYIDFTVISPLL	-0.952 ± 0.83
VDMSELVWIISPEVHTVSCS	inactive
VDNCYDVITSLILSKYVLTL	inactive
VDSLFSGKNYELECKFDSWI	inactive

Substance	amyloid nucleation score
VDSSGLV	inactive
VDVDCYLLSKNM	inactive
VDVLER	inactive
VDYFW	inactive
VEFSPMFHQGVTM	inactive
VEGCKEGVRVYHLTFESFVI	inactive
VENGCGAT	inactive
VESCRKDTYNSWFFDCLGDR	inactive
VESLSVSAAL	inactive
VFAISV	inactive
VFAMLLDMFDCARQWPAIPL	inactive
VFCHTAIL	inactive
VFCKNLNYALRMPSKWGLYT	inactive
VFDCYHRTGVMETVCWNVFG	inactive
VFEVVYV	inactive
VFFFMELEYSYFEY	inactive
VFFIAAFLSTCMR	inactive
VFRTSLLKSYFGFNMKCDNY	0.039 ± 0.26
VFSIKIYKPKSSFHDRFYSV	inactive
VFVDLPRARG	0.499 ± 0.32
VFVDYCNKYGEFVSGTAQVS	inactive
VFVFLPSWDISYDDPRGWSV	0.241 ± 0.19
VFWYKYVFSCNIIQGLLRMK	inactive
VFYFDSFRICSYVVLYGHMA	0.601 ± 0.28
